Biological target: prostate-specific membrane antigen (PSMA) (human) (UniProt Q04609)
Assay: in vivo near-infrared optical imaging of mouse liver, 72 h after Ad-Track-PSMA or Ad-Track-Luciferase, 48 h after 15 or 30 ug J591-IR800

Sequence of prostate-specific membrane antigen (PSMA) (human) (Q04609 whole entry): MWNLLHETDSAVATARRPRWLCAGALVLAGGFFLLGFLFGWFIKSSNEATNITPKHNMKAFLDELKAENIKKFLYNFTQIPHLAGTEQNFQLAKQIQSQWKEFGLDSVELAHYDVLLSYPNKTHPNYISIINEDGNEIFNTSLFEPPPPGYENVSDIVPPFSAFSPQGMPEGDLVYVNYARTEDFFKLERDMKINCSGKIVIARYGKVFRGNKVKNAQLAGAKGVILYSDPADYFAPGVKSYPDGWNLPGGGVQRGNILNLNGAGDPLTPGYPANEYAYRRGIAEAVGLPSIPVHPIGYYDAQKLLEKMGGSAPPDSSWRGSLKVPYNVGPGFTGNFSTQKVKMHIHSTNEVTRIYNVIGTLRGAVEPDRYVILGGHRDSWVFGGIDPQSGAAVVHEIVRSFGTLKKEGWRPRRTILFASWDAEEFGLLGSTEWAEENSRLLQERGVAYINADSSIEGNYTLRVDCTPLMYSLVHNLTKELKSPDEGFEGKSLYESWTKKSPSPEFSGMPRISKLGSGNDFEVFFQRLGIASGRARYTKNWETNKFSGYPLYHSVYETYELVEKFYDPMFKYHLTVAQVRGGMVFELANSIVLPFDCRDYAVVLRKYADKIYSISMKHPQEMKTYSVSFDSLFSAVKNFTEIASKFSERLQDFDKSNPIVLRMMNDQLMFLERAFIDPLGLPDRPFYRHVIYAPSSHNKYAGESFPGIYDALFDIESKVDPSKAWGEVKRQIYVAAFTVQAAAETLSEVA

signal-to-noise ratio (PSMA adenovirus relative to control adenovirus, liver): 3
Substance: J591 antibody conjugated to IRDye 800CW

From patent US20200347464A1
